Source: patent US20250269048A1 (BIVICTRIX, published 2025)
Residue numbers refer to the chain shown, from its start.

T1: human CD7 (human, UniProt P09564 26-180, limits assumed)
T1 construct: The construct is not described
T1 sequence (looked up): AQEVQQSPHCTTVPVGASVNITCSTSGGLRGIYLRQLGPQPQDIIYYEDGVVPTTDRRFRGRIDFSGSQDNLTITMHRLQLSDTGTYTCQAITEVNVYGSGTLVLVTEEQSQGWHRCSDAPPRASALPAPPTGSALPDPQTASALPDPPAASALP

T2: human CD7 on cells (human, UniProt P09564 26-240)
T2 construct: whole, on cells; Target of the FACS and cell capture values and of the kill assays on CD7 single positive cells; also called CD7+ cells; Jurkat (CD33-/CD7+)
T2 sequence (looked up): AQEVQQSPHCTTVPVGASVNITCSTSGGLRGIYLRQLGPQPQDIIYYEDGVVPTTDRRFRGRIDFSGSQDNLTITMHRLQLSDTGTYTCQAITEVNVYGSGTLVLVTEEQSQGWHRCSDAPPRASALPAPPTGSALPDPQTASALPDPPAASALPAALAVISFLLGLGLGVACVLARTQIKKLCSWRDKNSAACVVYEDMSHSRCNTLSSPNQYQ

B1: CD7-PP-12 CD7 binding arm (Fab, V domains shown)
VH: QVQLQESGAELVKPGASVKLSCKASGYTFTSYWMHWVKQRPGQGLEWIGKINPSNGRTNYNEKFKSKATLTVDKSSSTAYMQLSSLTSEDSAVYYCARGGVYYDLYYYALDYWGQGTTVTVSS
VL: DIELTQSPATLSVTPGDSVSLSCRASASISNNLHWYQQKSHESPRLLIKSASQSISGIPSRFSGSGSGTDFTLSINSVETEDFGMYFCQQSNSWPYTFGGGTKLEIKR
notes: Light chain Gln27Ala
B2: BVX100-MMAE (bispecific antibody)
heavy: QVQLQESGAELVKPGASVKLSCKASGYTFTSYWMHWVKQRPGQGLEWIGKINPSNGRTNYNEKFKSKATLTVDKSSSTAYMQLSSLTSEDSAVYYCARGGVYYDLYYYALDYWGQGTTVTVSSASTKGPSVFPLAPSSKSTSGGTAALGCLVKDYFPEPVTVSWNSGALTSGVHTFPAVLQSSGLYSLSSVVTVPSSSLGTQTYCCNVNHKPSNTKVDKKVEPKSCDKT
light: DIELTQSPATLSVTPGDSVSLSCRASQSISNNLHWYQQKSHESPRLLIKSASQSISGIPSRFSGSGSGTDFTLSINSVETEDFGMYFCQQSNSWPYTFGGGTKLEIKRTVAAPSVFIFPPSDEQLKSGTASVVCLLNNFYPREAKVQWKVDNALQSGNSQESVTEQDSKDSTYSLSSTLTLSKADYEKHKVYACEVTHQGLSSPVTKSFNRGEC
VH: EVQLVQSGAEVKKPGSSVKVSCKASGYTITDSNIHWVRQAPGQSLEWIGYIYPYNGGTDYNQKFKNRATLTVDNPTNTAYMELSSLRSEDTAFYYCVNGNPWLAYWGQGTLVTVSS
VL: DIQLTQSPSTLSASVGDRVTIICRASESLDNYGIRFLTWFQQKPGKAPKLLMYAASNQGSGVPSRFSGSGSGTEFTLTISSLQPDDFATYYCQQTKEVPWSFGQGTKLEIK
B3: BVX120-MMAE (bispecific antibody)
heavy: B2 heavy with R57K
light: B2 light
VH: B2 VH
VL: B2 VL
B4: BVX110-MMAE (bispecific antibody)
heavy: B2 heavy with R57G
light: B2 light
VH: B2 VH
VL: B2 VL
B5: BVX160-MMAE (bispecific antibody)
heavy: B2 heavy with Y108A
light: B2 light
VH: B2 VH
VL: B2 VL
B6: BVX100 (bispecific antibody)
heavy: B2 heavy
light: B2 light
VH: B2 VH
VL: B2 VL
notes: also called CD33-PP-1 WT/CD7-PP-1 WT
B7: CD33-PP-1-WT binding arm (Fab, V domains shown)
VH: B2 VH
VL: B2 VL
B8: BVX140-MMAE (bispecific antibody)
heavy: B2 heavy with R57G, Y108A
light: B2 light
VH: B2 VH
VL: B2 VL
B9: BVX130-MMAE (bispecific antibody)
heavy: B2 heavy with D104A
light: B2 light
VH: B2 VH
VL: B2 VL
B10: BVX150-MMAE (bispecific antibody)
heavy: B2 heavy with R57K, Y108A
light: B2 light
VH: B2 VH
VL: B2 VL
B11: BVX150 (bispecific antibody)
heavy: B2 heavy with R57K, Y108A
light: B2 light
VH: B2 VH
VL: B2 VL
notes: bi-Fab; also called CD33-PP-1 WT/CD7-PP-8
B12: BVX162 (bispecific antibody)
heavy: B2 heavy with Y108A
light: B2 light
VH: B2 VH with W102Y, Y105A
VL: B2 VL
notes: bi-Fab; also called CD33-PP-7/CD7-PP-13
B13: BVX102 (bispecific antibody)
heavy: B2 heavy
light: B2 light
VH: B2 VH with W102Y, Y105A
VL: B2 VL
notes: bi-Fab; also called CD33-PP-7/CD7-PP-1 WT
B14: BVX160 (bispecific antibody)
heavy: B2 heavy with Y108A
light: B2 light
VH: B2 VH
VL: B2 VL
notes: bi-Fab; also called CD33-PP-1 WT/CD7-PP-13

How the values were obtained:
human CD7 [1] = target: T1, human CD7; assay: SPR; reference 7-AA-WT
human CD7 on cells [2] = target: T2, human CD7 on cells; assay: FACS; reference 7-PP-1 WT
human CD7 [3] = target: T1, human CD7; assay: SPR; reference 7-PP-1 WT
human CD7 on cells [4] = target: T2, human CD7 on cells; assay: FACS; cells not named
human CD7 [5] = target: T1, human CD7; assay: SPR
human CD33 on cells [6] = target: T3, human CD33 on cells (human, UniProt P20138 18-364); assay: cell-based or functional assay
T3 sequence (P20138 18-364): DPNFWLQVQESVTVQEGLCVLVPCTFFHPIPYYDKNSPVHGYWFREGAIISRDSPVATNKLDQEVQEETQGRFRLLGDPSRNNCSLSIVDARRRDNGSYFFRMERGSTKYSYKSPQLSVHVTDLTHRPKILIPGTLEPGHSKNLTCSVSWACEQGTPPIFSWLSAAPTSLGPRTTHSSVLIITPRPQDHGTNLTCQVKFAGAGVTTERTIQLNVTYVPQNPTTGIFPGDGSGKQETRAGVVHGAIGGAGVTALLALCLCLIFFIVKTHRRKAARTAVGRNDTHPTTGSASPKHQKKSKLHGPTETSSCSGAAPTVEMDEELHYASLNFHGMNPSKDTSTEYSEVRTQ

human CD7 on cells [7] = target: T2, human CD7 on cells; assay: cell-based or functional assay
human CD33 [8] = target: T4, human CD33 (human, UniProt P20138 18-259, limits assumed); assay: SPR (Kd); value of the CD33 arm 33-PP-1 WT
T4 construct: The construct is not described
T4 sequence (P20138 18-259 limits assumed): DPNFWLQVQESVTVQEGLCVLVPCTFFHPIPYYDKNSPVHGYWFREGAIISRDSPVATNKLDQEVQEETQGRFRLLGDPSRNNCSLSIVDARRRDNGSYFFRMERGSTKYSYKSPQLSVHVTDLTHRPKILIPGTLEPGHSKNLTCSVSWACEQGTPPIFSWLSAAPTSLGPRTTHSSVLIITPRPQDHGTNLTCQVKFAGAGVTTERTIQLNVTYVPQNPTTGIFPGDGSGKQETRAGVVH

human CD7 [9] = target: T1, human CD7; assay: SPR (Kd); value of the CD7 arm 7-PP-1 WT
human CD33 on cells [10] = target: T3, human CD33 on cells; assay: FACS; cells not named
human CD33 [11] = target: T4, human CD33; assay: SPR
human CD7 [12] = target: T1, human CD7; assay: SPR (Kd); value of the CD7 arm 7-PP-8
human CD33 [13] = target: T4, human CD33; assay: SPR (Kd); value of the CD33 arm 33-PP-7
human CD7 [14] = target: T1, human CD7; assay: SPR (Kd); value of the CD7 arm 7-PP-13

| Binder | EC50 (nM), cytotoxicity (MTS, 96 h) on MV4.11 cells (CD7-/CD33+) (human CD33 on cells [6]) [nM] | EC50 (nM), cytotoxicity (MTS, 96 h) on SHI-1 cells (CD7-/CD33+) (human CD33 on cells [6]) [nM] | EC50 (nM), cytotoxicity (MTS, 96 h) on Jurkat cells (CD7+/CD33-) (human CD7 on cells [7]) [nM] | further results |
| --- | --- | --- | --- | --- |
| B1 |  |  |  | Fold Reduction in binding affinity compared to WT (Kd) (human CD7 [1]): 2.08 fold; FACS fold reduction compared to PP WT (human CD7 on cells [2]): 0.004 fold; Fold Reduction in binding affinity compared to PP WT (Kd) (human CD7 [3]): 1.53 fold; FACS binding (human CD7 on cells [4]): 0.002; Kd (human CD7 [5]): 5.46 nM |
| B2 | 10.8 | 2.26 | 0.92 |  |
| B3 | 16.5 | 7.21 | 1.52 |  |
| B4 | 27 | 11.4 | 4.52 |  |
| B5 |  |  | 7.31 |  |
| B6 |  |  |  | Fold reduction in binding affinity vs 33-PP-1 WT (human CD33 [8]): 0 fold; Fold reduction in binding affinity vs 7-PP-1 WT (human CD7 [9]): 0 fold |
| B7 |  |  |  | FACS binding (human CD33 on cells [10]): 0.16 nM; Kd (human CD33 [11]): 1.36 nM |
| B8 |  |  | 22.8 |  |
| B9 | 24.1 | 17.5 | 5.83 |  |
| B10 | 9.19 | 5.23 | 1.6 |  |
| B11 |  |  |  | Fold reduction in binding affinity vs 33-PP-1 WT (human CD33 [8]): 0 fold; Fold reduction in binding affinity vs 7-PP-1 WT (human CD7 [12]): 64.3 fold |
| B12 |  |  |  | Fold reduction in binding affinity vs 33-PP-1 WT (human CD33 [13]): 68 fold; Fold reduction in binding affinity vs 7-PP-1 WT (human CD7 [14]): 20.3 fold |
| B13 |  |  |  | Fold reduction in binding affinity vs 33-PP-1 WT (human CD33 [13]): 68 fold; Fold reduction in binding affinity vs 7-PP-1 WT (human CD7 [9]): 0 fold |
| B14 |  |  |  | Fold reduction in binding affinity vs 33-PP-1 WT (human CD33 [8]): 0 fold; Fold reduction in binding affinity vs 7-PP-1 WT (human CD7 [14]): 20.3 fold |
